Reference: article PMC8208635

Target: nascent, unphosphorylated PKC species (PDK1 binding, Fig. S9C) (UniProt P68403)

fold binding relative to the phosphorylated form: 2 fold
B1: PDK1 (enzyme)
chain: MARTTSQLYDAVPIQSSVVLCSCPSPSMVRTQTESSTPPGIPGGSRQGPAMDGTAAEPRPGAGSLQHAQPPPQPRKKRPEDFKFGKILGEGSFSTVVLARELATSREYAIKILEKRHIIKENKVPYVTRERDVMSRLDHPFFVKLYFTFQDDEKLYFGLSYAKNGELLKYIRKIGSFDETCTRFYTAEIVSALEYLHGKGIIHRDLKPENILLNEDMHIQITDFGTAKVLSPESKQARANSFVGTAQYVSPELLTEKSACKSSDLWALGCIIYQLVAGLPPFRAGNEYLIFQKIIKLEYDFPEKFFPKARDLVEKLLVLDATKRLGCEEMEGYGPLKAHPFFESVTWENLHQQTPPKLTAYLPAMSEDDEDCYGNYDNLLSQFGCMQVSSSSSSHSLSASDTGLPQRSGSNIEQYIHDLDSNSFELDLQFSEDEKRLLLEKQAGGNPWHQFVENNLILKMGPVDKRKGLFARRRQLLLTEGPHLYYVDPVNKVLKGEIPWSQELRPEAKNFKTFFVHTPNRTYYLMDPSGNAHKWCRKIQEVWRQRYQSHPDAAVQ
